Results on 1 substance are retold here after paper doi:10.1101/2020.09.29.317909.

The experiment deals with MtMce4A_(39-140) (Mycobacterium tuberculosis). As to the kind of experiment: SEC-MALS. On the technique in general: SEC sorts molecules by how far they enter the pores of the column.

A word on the stoichiometry N: it is the number of molecules, sites or subunits per partner or assembly. For MtMce4A_(39-140) (domain or fragment), the stoichiometry N was 2.
